Assay results: patent CN113004416A (HEFEI HANKEMAB BIOTECHNOLOGY CO LTD, dated 2021)

Columns and labels:
[1] = molecular target: T1, 细胞表面HER2抗原 (HER2 on SKOV3, N87, MCF-7/HER2, MCF-7, JIMT-1, AC16 cells) (human, UniProt P04626 23-1255); assay: flow cytometry on AC16 cells
T1 construct: whole, on cells

[2] = molecular target: T1, 细胞表面HER2抗原 (HER2 on SKOV3, N87, …); assay: flow cytometry on JIMT-1 cells
[3] = molecular target: T1, 细胞表面HER2抗原 (HER2 on SKOV3, N87, …); assay: flow cytometry on MCF-7/HER2 cells
[4] = molecular target: T1, 细胞表面HER2抗原 (HER2 on SKOV3, N87, …); assay: flow cytometry on SKOV3 cells
[5] = molecular target: T2, HER2抗原 (human HER2/ErbB2 in lysate of T6-17 cells, coated on ELISA plate) (human, UniProt P04626 23-1255); assay: ELISA on coated T6-17 cell lysate
T2 construct: The antigen is a crude detergent lysate of cells with high membrane expression of human HER2, not a purified protein

[6] = molecular target: T1, 细胞表面HER2抗原 (HER2 on SKOV3, N87, …); assay: flow cytometry on N87 cells
[7] = molecular target: 人4-1BB抗原 (recombinant, purified from 293 cell supernatant by Protein A) (human); assay: ELISA on coated 4-1BB antigen
[8] = molecular target: 细胞表面4-1BB抗原 (human 4-1BB on CHO-K1-Hu4-1BB stable cells; CD137 on lymphocytes) (human); assay: flow cytometry on CHO-K1-Hu4-1BB cells
细胞表面4-1BB抗原 (human 4-1BB on CHO-K1-Hu4-1BB stable cells; CD137 on lymphocytes) (human), sequence (chain, as listed by the source): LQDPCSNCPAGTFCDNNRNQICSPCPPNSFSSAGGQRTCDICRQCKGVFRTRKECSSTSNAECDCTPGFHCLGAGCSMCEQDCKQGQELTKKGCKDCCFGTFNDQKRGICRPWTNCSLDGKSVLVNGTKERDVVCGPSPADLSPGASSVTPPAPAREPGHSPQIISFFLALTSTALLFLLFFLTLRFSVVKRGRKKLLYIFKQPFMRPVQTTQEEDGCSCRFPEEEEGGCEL

人4-1BB抗原 (recombinant, purified from 293 cell supernatant by Protein A) (human), sequence (chain, as listed by the source): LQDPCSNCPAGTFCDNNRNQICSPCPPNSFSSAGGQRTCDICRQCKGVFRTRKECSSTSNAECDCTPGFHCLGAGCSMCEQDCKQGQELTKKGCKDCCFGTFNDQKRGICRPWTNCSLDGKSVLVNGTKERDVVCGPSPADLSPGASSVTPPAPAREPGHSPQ

| Binder | EC50 [1] | EC50 [2] | EC50 [3] | EC50 [4] | EC50 [5] | EC50 [6] | EC50 [7] | EC50 [8] |
| --- | --- | --- | --- | --- | --- | --- | --- | --- |
| 抗人HER2单克隆抗体 Trastuzumab (Herceptin) (antibody, V domains shown, IgG1, kappa; also called 曲妥珠单抗) VH: not shown VL: DIQMTQSPSSLSASVGDRVTITCRASQDVNTAVAWYQQKPGKAPKLLIYSASFLYSGVPSRFSGSRSGTDFTLTISSLQPEDFATYYCQQHYTTPPTFGGGTKLTVLG | 0.851 µg/mL | 1.1 µg/mL | 1.39 µg/mL | 1.23 µg/mL | 0.104 µg/mL | 2 µg/mL | – | – |
| 抗人4-1BB单克隆抗体 HuB6 (antibody, V domains shown, Monoclonal antibody; also called Hanke10F4 (专利申请201911105611.1)) VH: QVQLQESGPGLVKPSETLSITCTVSGSSLTSYGVHWVRQPPGKGLEGLGVIWPGGSTNYNSALMSRLTISKDNSKSQVSLKMSSLTAADTAMYYCARVTGTWYFDVWGQGTTVTVSS VL: DIQMTQSPSSLSASLGDRVTISCSASQGISNYLNWYQQKPDGTVKLLIYYTSTLHSGVPSRFSGSGSGTDFTLTISSLQPEDVATYYCQQYSKLPWTFGGGTKLEIK | – | – | – | – | – | – | 0.00634 µg/mL | 2.49 µg/mL |
